Test [1] concerns LNCaP C4-2 cells. Briefly: Western blotting of death receptors, caspases, Bid, cytochrome c, Akt. Format: cell-based. The settings on record: LNCaP C4-2; for DR4 levels: FIG. 2B. The protocol:
(§1) LNCaP were obtained from American Type Culture Collection (Rockville, Md.) and LNCaP C4-2 cells were purchased from Urocor Inc., Oklahoma City, Okla. Cells were grown in RPMI 1640 medium supplemented with 10% (LNCaP) or 5% (LNCaP C4-2) fetal bovine serum (Hyclone, Logan, Utah) and grown in the presence of 5% CO2 at 37° C. Cells were treated with 10 μM Mifepristone (Sigma, St. Louis, Mo.) for three days or with increasing concentrations (from 200 ng/ml to 600 ng/ml) of TRAIL (Biomol Research Laboratories, Inc., Plymouth Meetings, Pa.) for varying time intervals 2, 4, 6, 8, 16, 20 and 24 hours (hr). Thus, for treatment with Mifepristone, cells were treated with Mifepristone for three days and then some cells treated (without washing) with TRAIL for indicated periods. Upon completion of the experiment, cells were harvested, and total proteins, cytosol or mitochondrial fractions were isolated as described below. At least three experiments were conducted with a minimum of four plates per treatment per experiment.
(§2) For experiments using inhibitors, the cells were pre-treated with increasing concentrations of the inhibitors (10 μM to 100 μM) for one hr and then with TRAIL. Caspase-8-specific (Z-IETD-FMK) and caspase-9-specific ([…]) inhibitors were purchased from Enzyme Systems Products, Livermore, Calif. The inhibitors were dissolved in DMSO; to limit cellular toxicity, care was taken not to exceed 0.2% DMSO in the culture medium. Appropriate controls included vehicle treated cells with or without the inhibitors.
(§3) Cells were harvested by trypsinization, washed in 1×PBS and cell pellets resuspended in lysis buffer (100 mM Tris-HCl pH 8.0, 0.1% Triton X 100 and protease inhibitor cocktail from Roche Diagnostic Corporation, Indianapolis, Ind.). Cells were incubated over ice for 30 min and centrifuged at 10,000 g at 4° C. for 10 min. The supernatant was collected and the protein concentration estimated using Bio-Rad protein reagent (Bio-Rad Laboratories, Hercules, Calif.).
(§4) Proteins (50 μg, unless stated otherwise) were separated on NuPAGE 10% Bis-Tris gels (Novex pre-cast mini gels, InVitrogen, Carlsbad, Calif.) at 100 volts for 1 hour in the presence of 1×MES-SDS running buffer (InVitrogen, Carlsbad, Calif.). Separated proteins were transferred to (PVDF) membranes (Bio-Rad Laboratories, Hercules, Calif.) at 42 volts for 2.5 hr using a Novex XCell II blotting apparatus in MES transfer buffer in the presence of NuPAGE antioxidant. Transfer of the proteins to the polyvinylidene difluoride (PVDF) membrane was confirmed by staining with Ponceau S (Sigma, St. Louis, Mo.). The blots were blocked in 5% non-fat dry milk in TBS, washed twice for 10 min each with TBS containing 0.1% Tween-20 and incubated for 2 hr at RT with primary antibody diluted in TBS containing 0.5% milk.
(§5) The following antibodies were used in the immunoblots: DR4, DR5 and cytochrome c (Imgenex, San Diego, Calif.), BID (BioSource International, Camarillo, Calif.), caspases-8, -9, and Akt (Cell Signaling Technology, Beverely, Mass.), caspase-3 (BD Pharmingen, San Diego, Calif.) Iκβ and XIAP (Cell Signaling Technology, Beverly, Mass.), cFLIP (StressGen Biotechnology Corp, Victoria, Canada), actin (Sigma Chemical Co., St. Louis, Mo.) and Cox II (Molecular Probes, Eugene, Oreg.). Immunoreactive bands were visualized using ECL detection system (Amersham, Pharmacia Biotech, Arlington Heights, Ill.) and signals were developed after exposure to X-ray film (X-Omat films, Eastman Kodak Company, Rochester, N.Y.).
(§6) For separation of mitochondrial and cytosolic fractions, cells were trypsinized, centrifuged at 600 g for 10 min at 4° C., washed twice in ice-cold PBS and re-suspended in buffer A (20 mM HEPES-KOH, pH 7.2, 10 mM KCl, 1.5 mM MgC12, 1 mM sodium-EDTA, 1 mM sodium-EGTA, 250 mM sucrose and protease inhibitor cocktail). Cells were homogenized on ice with a glass Dounce homogenizer (30 strokes) and were centrifuged at 750 g for 5 min at 4° C. […]
On the technique in general: A western blot detects proteins with antibodies after separation by electrophoresis.

Test [2] deals with LNCaP cells. The test is described as above. Format: cell-based. The settings on record: LNCaP; for DR4 levels / expression of DR5: FIG. 2A. The protocol:
as §1, §2, §3, §4, §5, §6

The subject of another test is prostate cancer cells. As to conditions: cited from earlier work.
Test [3] relates to LNCaP cells. The settings on record: cited from earlier work.
Test [4] concerns LNCaP cells. In words: Apoptosense assay (M30 ELISA, cleaved cytokeratin 18). Format: cell-based. The protocol: as §1, with “experiment. Two methods were used to measure induction of apoptosis by drug treatment: the MTT assay and the Apoptosense assay. The MTT assay measures mitochondrial enzyme activity and is indicative of the number of surviving cells. […] Cells were plated in petri dishes and after completion of the treatment, cells were harvested and total protein extracted as described below. […] Color was developed by adding tetramethylbenzidine solution and the optical density of the bound antibody was determined at 450 nm on a Spectra MAX 340 microplate reader (Molecular Devices, Menlo Park, Calif.). Standard solution supplied by the supplier was used for generating standard curves.” for “experiment.”
(In general: An ELISA detects its analyte on a solid surface through an enzyme-linked reagent.)

The test system of a further test is PC3AR cells. In words: Induction of apoptosis / cell survival (FIG. 1E, 6A). It is filed as cell-based.
Test [5] has as its system LNCaP C4-2 cells. In words: Western blotting of death receptors, caspases, Bid, cytochrome c, Akt. The settings on record: 15 min, FIG. 8. It is filed as cell-based.

Method for PC3AR cells: PC3AR cells are a clonal cell line derived by stable transfection of PC3 with a full-length human AR cDNA (Dai, J. L., et al., Steroids, 61, 531-539, 1996). PC3Neo cells were stably transfected with neomycin vector alone. Cells were grown in RPMI 1640 with 5% FBS (Hyclone, Logan, Utah), 100 units/ml penicillin, 100 μg/ml streptomycin, 0.25 μg/ml fungizone and G418 (350 μg/ml) to select for neomycin-resistant cells. In experiments using antiandrogens, cells were maintained in 5% DCC stripped serum for at least 48 hr before treatment with hydroxyflutamide (Sigma Chemical Co., St. Louis, Mo.). The medium and all the drugs were replaced every two days. Cells were treated with 200 ng/ml, 400 ng/ml or 600 ng/ml of TRAIL (Biomol Research Laboratories, Inc, Plymouth Meeting, Pa.) for 2, 4, 6, 8, 16 and 20 hr. Cells were treated with 5 μM hydroxyflutamide for 5 days before the commencement of treatment with 400 ng/ml TRAIL.
Two methods were used to measure induction of apoptosis by drug treatment: the MTT assay and the Apoptosense assay. The MTT assay measures mitochondrial enzyme activity and is indicative of the number of surviving cells. The Apoptosense assay is an ELISA, which utilizes M30 antibody to recognize the C-terminal domain (amino acids 387-396) of cytokeratin 18 that is exposed in apoptotic cells after cleavage by caspases.
Cells were seeded in 96-well plates (6000 cells/well) and treatment was started 24 hr after seeding the cells. After completion of the treatment, cells were incubated at 37° C. with the MTT reagent for 3 hr and processed according to manufacturers instructions (Promega Corporation, Madison, Wis.). Color development was measured at 490 nm on a Spectra MAX 340 microplate reader (Molecular Devices, Menlo Park, Calif.).

On to `CC#C[C@]1(O)CC[C@H]2[C@@H]3CCC4=CC(=O)CCC4=C3[C@@H](c3ccc(N(C)C)cc3)C[C@@]21C` [Mifepristone], for which the DR4 levels entry with LNCaP C4-2 cells [1] and in the test on LNCaP cells [2] was “did not show significant changes” throughout. Further, the “activation of procaspase-8” value in the test with LNCaP C4-2 cells [1] (FIG. 3B) and in the test on LNCaP cells [2] (FIG. 3A) was “small increase in the activation of caspase-8” throughout. Moreover, the “induction of caspase-3” value in the test on LNCaP C4-2 cells [1] (FIG. 3D) was “nor is it effective in inducing caspase-3”. For the same molecule, the “expression of DR5” value in the test on LNCaP cells [2] is given as “significant increase”. The “activation of caspase-3” value in the test on LNCaP cells [2] (FIG. 3C) was “activates caspase-3”. Moreover, in the test with LNCaP cells [2] (Mifepristone pre-treatment, then TRAIL, FIG. 3C), the “activation of caspase-7 in TRAIL-treated cells after pre-treatment with Mifepristone” value was “activated caspase-7 by 4 hr”. Besides, in the test on prostate cancer cells, the “ability to induce apoptosis in prostate cancer cells (Sridhar et al., 2001)” value is reported as “marginal ability to induce apoptosis”. Besides, the “induction of tBid (Sridhar et al., 2001)” value in the test with LNCaP cells [3] is reported as “weakly induced”. For the same molecule, the “M30 activity (in words)” value with LNCaP cells [4] is recorded as “lower M30 activity”.

B1: Tumor necrosis factor α—Related Apoptosis Inducing Ligand (protein, UniProt P50591 1-281, looked up)
Tumor necrosis factor ligand …: MAMMEVQGGPSLGQTCVLIVIFTVLLQSLCVAVTYVYFTNELKQMQDKYSKSGIACFLKEDDSYWDPNDEESMNSPCWQVKWQLRQLVRKMILRTSEETISTVQEKQQNISPLVRERGPQRVAAHITGTRGRSNTLSSPNSKNEKALGRKINSWESSRSGHSFLSNLHLRNGELVIHEKGFYYIYSQTYFRFQEEIKENTKNDKQMVQYIYKYTSYPDPILLMKSARNSCWSKDAEYGLYSIYQGGIFELKENDRIFVSVTNEHLIDMDHEASFFGAFLVG
notes: 281 amino acid type II transmembrane protein of the tumor necrosis factor α family; purchased from Biomol
Turning to B1, the “apoptotic response at 200 ng/ml” value in the test with PC3AR cells (200 ng/ml TRAIL) is recorded as “lower response”. The same molecule had an apoptosis with PC3AR cells (400 ng/ml TRAIL, by 20 hr, FIG. 1E) of around 41%. Besides, the “apoptosis at higher dose” value with PC3AR cells (600 ng/ml TRAIL) is given as “did not significantly increase apoptosis”. Further, in the test on LNCaP C4-2 cells [5], the “phosphorylated Akt” value is “slightly decreased phosphorylated Akt”. Besides, the DR4 levels entry in the test on LNCaP C4-2 cells [1] is reported as “did not show significant changes”. Further, the “cytochrome c levels in cytosol” value in the test with LNCaP C4-2 cells [1] (FIG. 5B) is on record as “increased cytochrome c levels in cytosol within 15 min”. Moreover, the “phosphorylated Akt” value with LNCaP cells [2] (15 min, FIG. 8) is recorded as “slightly decreased phosphorylated Akt”. In the test on LNCaP cells [2], the DR4 levels result was “did not show significant changes” and the “expression of DR5” value was “did not increase significantly”. In addition, in the test on LNCaP cells [2] (FIG. 3A), the “activation of procaspase-8” value is reported as “decrease in the 57 KDa procaspase-8 protein as early as 2 hr” and the “truncated Bid (tBid)” value is listed as “tBid was noted by 2 hr”. Also, in the test with LNCaP cells [2] (FIG. 3C), the “activation of caspase-3” value is recorded as “yielded cleaved 17 KDa caspase-3 product by 2 hr” and the “activation of caspase-7” value is “activated caspase-7 by 20 hr”. Moreover, the “cytochrome c levels in cytosol” value in the test on LNCaP cells [2] (FIG. 5A) is “increased cytochrome c levels in cytosol within 15 min”.

The record behind these values is patent US20020115613A1, “Treatment of prostate cancer” (priority 2001, published 2002).
